Results on two substances are retold here after publication PMC1540706.

The target of assay [1] is human β2-appendage (700–937) used for ITC (human) (UniProt P63010). As to the kind of experiment: ITC; VP-ITC; 100 mM HEPES, 50 mM NaCl, 2 mM DTT pH 7.4 at 10 °C; peptides or proteins injected from the syringe into the cell.
Another assay concerns the target epsinR peptide. As to the kind of experiment: ITC. The following applies: stoichiometry (1.3).

human β2-appendage (700–937) used for ITC, sequence (P63010 whole entry Y888V, looked up, tested part not stated): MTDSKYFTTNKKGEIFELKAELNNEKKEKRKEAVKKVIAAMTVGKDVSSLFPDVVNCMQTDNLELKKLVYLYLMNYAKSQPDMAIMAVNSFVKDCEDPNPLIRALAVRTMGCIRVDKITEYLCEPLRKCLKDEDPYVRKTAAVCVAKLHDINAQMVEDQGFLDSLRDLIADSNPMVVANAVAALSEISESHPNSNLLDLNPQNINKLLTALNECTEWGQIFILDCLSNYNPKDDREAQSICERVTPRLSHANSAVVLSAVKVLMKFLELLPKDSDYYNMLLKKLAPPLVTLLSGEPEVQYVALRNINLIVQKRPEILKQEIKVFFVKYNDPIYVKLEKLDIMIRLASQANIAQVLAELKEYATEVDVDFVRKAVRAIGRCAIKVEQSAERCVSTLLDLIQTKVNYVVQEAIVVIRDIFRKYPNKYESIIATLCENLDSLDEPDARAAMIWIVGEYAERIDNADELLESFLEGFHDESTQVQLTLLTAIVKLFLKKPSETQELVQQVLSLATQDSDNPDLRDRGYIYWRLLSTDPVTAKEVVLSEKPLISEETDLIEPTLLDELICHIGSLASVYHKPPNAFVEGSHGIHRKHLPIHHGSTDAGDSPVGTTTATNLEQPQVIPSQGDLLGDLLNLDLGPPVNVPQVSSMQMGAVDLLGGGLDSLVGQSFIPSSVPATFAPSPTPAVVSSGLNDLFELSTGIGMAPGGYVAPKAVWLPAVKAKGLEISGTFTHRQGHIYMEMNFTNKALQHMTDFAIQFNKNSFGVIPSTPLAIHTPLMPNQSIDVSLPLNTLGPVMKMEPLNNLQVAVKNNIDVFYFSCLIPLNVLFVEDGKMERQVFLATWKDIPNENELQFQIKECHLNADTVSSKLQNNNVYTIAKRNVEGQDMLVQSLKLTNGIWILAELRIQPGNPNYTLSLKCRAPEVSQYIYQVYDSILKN
human β2-appendage (700–937) used for ITC (human), sequence (P63010 700-937): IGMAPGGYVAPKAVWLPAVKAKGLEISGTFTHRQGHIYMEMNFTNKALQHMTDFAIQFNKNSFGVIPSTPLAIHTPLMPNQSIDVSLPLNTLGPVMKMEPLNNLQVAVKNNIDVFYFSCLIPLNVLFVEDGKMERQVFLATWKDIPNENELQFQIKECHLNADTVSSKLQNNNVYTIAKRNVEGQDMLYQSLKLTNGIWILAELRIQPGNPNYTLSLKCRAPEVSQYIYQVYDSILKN

In the case of epsinR peptide, the dissociation constant Kd (usually a measure of binding affinity in units of concentration) in assay [1] is 80 µM.
“human β2-appendage (700–937) used for ITC (from UniProt P63010) Y888V”: in the assay with epsinR peptide, the Kd is 77 µM. This counts as double-digit micromolar.
